Reference: US20240189423A1 (University of California, published 2024)

What was measured:
[1] = molecular target: VEGF-647 (UniProt P15692-4 27-191, biotinylated, pre-incubated with streptavidin-647); assay: cell-based or functional assay
[2] = molecular target: T1, CXCR4 (human (endogenous on a human cancer …, UniProt P61073 1-352)); assay: flow cytometry on MDA-MB-231 cells known to express CXCR4 and CXCR7
T1 construct: whole, on cells

[3] = molecular target: T2, CXCR7 (human (endogenous on a human cancer …, UniProt P25106 1-362)); assay: as above
T2 construct: whole, on cells; also called ACKR3
T2 sequence (P25106 whole entry): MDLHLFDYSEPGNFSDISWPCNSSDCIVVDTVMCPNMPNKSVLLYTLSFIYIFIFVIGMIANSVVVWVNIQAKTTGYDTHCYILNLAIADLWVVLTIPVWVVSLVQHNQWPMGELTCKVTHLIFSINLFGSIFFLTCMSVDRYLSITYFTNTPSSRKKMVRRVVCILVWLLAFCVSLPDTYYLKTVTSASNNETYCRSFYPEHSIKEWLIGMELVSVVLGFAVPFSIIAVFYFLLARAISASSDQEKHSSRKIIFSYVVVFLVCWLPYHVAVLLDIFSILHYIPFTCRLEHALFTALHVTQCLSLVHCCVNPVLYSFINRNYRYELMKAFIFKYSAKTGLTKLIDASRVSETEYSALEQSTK

[4] = molecular target: T3, mouse CXCR7 (mouse, UniProt P56485 1-362); assay: flow cytometry on MC38 and CT26 mouse cells
T3 construct: whole, on cells; also called mouse CXCR7 receptors
T3 sequence (P56485 whole entry): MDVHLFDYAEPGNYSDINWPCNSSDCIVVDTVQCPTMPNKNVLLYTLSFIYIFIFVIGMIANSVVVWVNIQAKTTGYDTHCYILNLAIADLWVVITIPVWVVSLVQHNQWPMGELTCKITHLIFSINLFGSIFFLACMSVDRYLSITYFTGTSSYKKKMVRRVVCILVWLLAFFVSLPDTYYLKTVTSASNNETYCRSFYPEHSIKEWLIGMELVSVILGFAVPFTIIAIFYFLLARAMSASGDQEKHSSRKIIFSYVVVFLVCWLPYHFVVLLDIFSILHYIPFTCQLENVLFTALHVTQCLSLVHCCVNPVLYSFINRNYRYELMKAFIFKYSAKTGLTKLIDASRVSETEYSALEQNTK

T1 sequence (P61073 whole entry): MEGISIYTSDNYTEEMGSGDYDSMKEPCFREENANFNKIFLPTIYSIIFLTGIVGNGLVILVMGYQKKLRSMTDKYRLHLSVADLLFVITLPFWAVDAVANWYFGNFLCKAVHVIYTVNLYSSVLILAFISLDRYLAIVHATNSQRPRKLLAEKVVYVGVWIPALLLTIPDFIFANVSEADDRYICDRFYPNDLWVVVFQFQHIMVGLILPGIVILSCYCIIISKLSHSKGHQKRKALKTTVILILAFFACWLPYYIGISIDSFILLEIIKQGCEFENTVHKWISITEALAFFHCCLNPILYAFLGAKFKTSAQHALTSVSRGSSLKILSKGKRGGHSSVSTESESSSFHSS
VEGF-647, sequence (P15692 other isoform, or with tags, fused parts or gaps limits assumed): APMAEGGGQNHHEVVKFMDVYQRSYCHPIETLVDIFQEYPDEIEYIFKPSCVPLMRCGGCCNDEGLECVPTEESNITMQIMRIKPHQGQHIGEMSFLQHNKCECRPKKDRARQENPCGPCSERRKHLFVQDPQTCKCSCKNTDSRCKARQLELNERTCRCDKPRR

B1: CXCL12-Bevacizumab (bispecific antibody, human IgG1, N297G)
chain: not shown
heavy: not shown
light: not shown
fold increase in cellular fluorescence (VEGF-647 uptake), flow cytometry, HeLa cells, 24 hr [1]: 32 fold

B2: CXCL12-Isotype (bispecific antibody, human IgG1, kappa, N297G)
chain: not shown
heavy: not shown
light: DIQMTQSPSSLSASVGDRVTITCRASQSVGSALAWYQQKPGKAPKLLIYSASSLYSGVPSRFSGSRSGTDFTLTISSLQPEDFATYYCQQSSYHHPITFGQGTKVEIKRTVAAPSVFIFPPSDSQLKSGTASVVCLLNNFYPREAKVQWKVDNALQSGNSQESVTEQDSKDSTYSLSSTLTLSKADYEKHKVYACEVTHQGLSSPVTKSF
notes: also called human CXCL12 isotype; isotype control of the CXCL12 bispecific
binding result [2]: binds | binding result [3]: binds | binding result [4]: binds
